Legend:
[1] = biological target: T1, construct 4276 (single-chain TMP: NKG2 peptide …, β2M polypeptide, HLA-E heavy chain polypeptide, Ig Fc …); test: BLI (Octet HTX), biotinylated receptor on streptavidin biosensor, bivalent TMP as analyte, steady state Kd (avidity)
Description: (§1) Streptavidin-coated biosensors were used to immobilize biotinylated NKG2A/CD94 heterodimers, or biotinylated NKG2C/CD94 heterodimers.

[2] = biological target: T1, construct 4276 (single-chain TMP: NKG2 …); test: BLI (Octet HTX), biotinylated receptor on streptavidin biosensor, bivalent TMP as analyte, kinetic analysis
Description: as §1

| Binder | Kd [1] [nM] | koff [2] [s⁻¹] |
| --- | --- | --- |
| biotinylated NKG2A/CD94 heterodimer (receptor, Biotinylated heterodimer immobilized on streptavidin-coated biosensors; also called CD94/NKG2A receptor; NKG2A/CD94 complex) chain 1: not shown chain 2: KNSFTKLSIEPAFTPGPNIELQKDSDCCSCQEKWVGYRCNCYFISSEQKTWNESRHLCASQKSSLLQLQNTDELDFMSSSQQFYWIGLSYSEEHTAWLWENGSALSQYLFPSFETFNTKNCIAYNPNGNALDESCEDKNRYICKQQLI | 57 | 0.04 |
| biotinylated NKG2C/CD94 heterodimer (receptor, Biotinylated heterodimer immobilized on streptavidin-coated biosensors; also called CD94/NKG2C receptor) chain 1: not shown chain 2: KNSFTKLSIEPAFTPGPNIELQKDSDCCSCQEKWVGYRCNCYFISSEQKTWNESRHLCASQKSSLLQLQNTDELDFMSSSQQFYWIGLSYSEEHTAWLWENGSALSQYLFPSFETFNTKNCIAYNPNGNALDESCEDKNRYICKQQLI | 55 | 0.053 |
